From patent US20180319855A1, “GENETICALLY MUTATED AEQUORIN-BASED BIOSENSORS WITH EXTRA SENSITIVITY TO CALCIUM AND IMPROVED BIOLUMINESCENCE INTENSITY” (CENTRE NATIONAL DE LA RECHERCHE SCIENTIFIQUE (CNRS), priority 2015, published 2018)
Numbering of substitutions follows the chain as printed. Numbers in names are those of the source. Like-named read-outs stand apart in the source and are kept apart here.

B1: Redq/Q159T: aporedquorin (tdTomato-aequorin fusion) mutant Q159T (SEQ ID NO:22) (protein)
chain: MVSKGEEVIKEFMRFKVRMEGSMNGHEFEIEGEGEGRPYEGTQTAKLKVTKGGPLPFAWDILSPQFMYGSKAYVKHPADIPDYKKLSFPEGFKWERVMNFEDGGLVTVTQDSSLQDGTLIYKVKMRGTNFPPDGPVMQKKTMGWEASTERLYPRDGVLKGEIHQALKLKDGGHYLVEFKTIYMAKKPVQLPGYYYVDTKLDITSHNEDYTIVEQYERSEGRHHLFLGHGTGSTGSGSSGTASSEDNNMAVIKEFMRFKVRMEGSMNGHEFEIEGEGEGRPYEGTQTAKLKVTKGGPLPFAWDILSPQFMYGSKAYVKHPADIPDYKKLSFPEGFKWERVMNFEDGGLVTVTQDSSLQDGTLIYKVKMRGTNFPPDGPVMQKKTMGWEASTERLYPRDGVLKGEIHQALKLKDGGHYLVEFKTIYMAKKPVQLPGYYYVDTKLDITSHNEDYTIVEQYERSEGRHHLFLSGFDNPRWIGRHKHMFNFLDVNHNGKISLDEMVYKASDIVINNLGATPEQAKRHKDAVEAFFGGAGMKYGVETDWPAYIEGWKKLATDELEKYAKNEPTLIRIWGDALFDIVDKDQNGAITLDEWKAYTKAAGIIQSSEDCEETFRVCDIDESGTLDVDEMTRQHLGFWYTMDPACEKLYGGAVP
modifications: mutant aequorin
B2: Redq/Q159D: aporedquorin (tdTomato-aequorin fusion) mutant Q159D (SEQ ID NO:21) (protein)
chain: B1 chain with T623D
modifications: mutant aequorin

Assay: Ca2+ sensitivity curves of reconstituted photoproteins (L/Lmax vs free Ca2+)
Format: biochemical
Details: for EC50: redquorin series, CitA, GA, read-out: Calcium sensitivity, EC50; for Relative intensity at pCa 6.5 / Relative intensity at pCa 7.2: relative to Redq
Procedure, shortened: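 Purified apoaequorin/redquorin mutants reconstituted overnight at 4 °C with 5 μM CLZ-f or native CLZ, then moved to zero-Ca2+ MOPS/KCl/EGTA buffer, pH 7.2. Luminescence in EGTA-buffered free-Ca2+ solutions, then saturating CaCl2 to obtain Lmax; EC50 from variable-slope sigmoidal fit of L/Lmax.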

Row | Molecule | EC50 (CLZ-f) [nM] | Relative intensity at pCa 6.5 (CLZ-f) | Relative intensity at pCa 7.2 (CLZ-f) | Relative intensity at pCa 6.5 (CLZ-f, listed as Redq/QT) | EC50 (CLZ-native) [nM] | Relative intensity at pCa 6.5 (CLZ-native) | Relative intensity at pCa 7.2 (CLZ-native) | Relative intensity at pCa 6.5 (CLZ-native, listed as Redq/QT)
1 | B1 | 296 ± 13 | 11.0 | 2.8 | 11 | 478 ± 39 | 13.0 | 7.1 | 13
2 | B2 | 290 ± 18 | 23.9 | 14.9 |  | 680 ± 33 | 9.1 | 13.2 | 
